The chains are these.
B2: ScMad2^wt (recombinant S. cerevisiae Mad2, wild type) (natural protein)
chain: MSQSISLKGSTRTVTEFFEYSINSILYQRGVYPAEDFVTVKKYDLTLLKTHDDELKDYIRKILLQVHRWLLGGKCNQLVLCIVDKDEGEVVERWSFNVQHISGNSNGQDDVVDLNTTQSQIRALIRQITSSVTFLPELTKEGGYTFTVLAYTDADAKVPLEWADSNSKEIPDGEVVQFKTFSTNDHKVGAQVSYKY

One test deals with AlexaFluor488-HsMad2^wt (human, UniProt Q13257 1-205, AlexaFluor488, covalent). As to the kind of experiment: SEC.
Test [1] deals with C-Mad2^wt–Cdc20^195–211 complex (S. cerevisiae, UniProt P40958;P26309). As to the kind of experiment: SEC. For orientation: In gel filtration, larger molecules generally elute earlier.
The target in test [2] is B2. As to the kind of experiment: pull-down.
Test [3] has as its target T1, ScMad2^RQEA (recombinant, Arg126-Glu/Gln127-Ala) (S. cerevisiae, UniProt P40958 1-196, R126E | Q127A).
T1 sequence: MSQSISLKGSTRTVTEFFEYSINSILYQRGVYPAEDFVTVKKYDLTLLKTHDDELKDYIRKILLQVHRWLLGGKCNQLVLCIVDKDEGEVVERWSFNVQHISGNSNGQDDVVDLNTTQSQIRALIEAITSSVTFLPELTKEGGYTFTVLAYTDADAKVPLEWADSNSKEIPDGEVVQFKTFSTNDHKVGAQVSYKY
As to the kind of experiment: ITC. A general note: Isothermal titration calorimetry measures the heat released or taken up as one component is titrated into another.

Another test addresses T2, AlexaFluor488-ScMad2^wt (S. cerevisiae, UniProt P40958 1-196, AlexaFluor488 succimidyl ester reactive dye, covalent, final dye/protein ratio ~0.5).
T2 sequence: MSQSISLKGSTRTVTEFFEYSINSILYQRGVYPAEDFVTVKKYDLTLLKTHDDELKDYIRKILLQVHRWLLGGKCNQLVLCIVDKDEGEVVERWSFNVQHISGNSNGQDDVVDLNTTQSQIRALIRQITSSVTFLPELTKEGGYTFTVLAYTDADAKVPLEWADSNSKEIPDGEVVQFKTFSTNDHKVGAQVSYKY
As to the kind of experiment: SEC.

The target of test [4] is B2. As to the kind of experiment: SEC.

Sequence of AlexaFluor488-HsMad2^wt (Q13257 whole entry): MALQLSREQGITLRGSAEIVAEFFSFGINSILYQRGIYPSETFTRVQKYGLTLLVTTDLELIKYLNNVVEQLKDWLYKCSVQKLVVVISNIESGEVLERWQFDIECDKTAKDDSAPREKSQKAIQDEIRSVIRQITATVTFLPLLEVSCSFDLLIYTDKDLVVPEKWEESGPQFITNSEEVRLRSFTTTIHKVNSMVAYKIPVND

B1: HsCdc20^111–138 synthetic peptide (peptide)
peptide: EHQKAWALNLNGFDVEEAKILRLSGKPQ
As for B1, the binding result in the test with AlexaFluor488-HsMad2^wt is listed as “binds”.

Turning to B2, the “percent of total Mad2 in the dimer peak at a 4:1 Mad2/Cdc20^195–211 ratio” value in test [1] was around 50%.

B3: GST-ScMad1^563–590 (domain or fragment)
chain: QLLQEKLEKLTKLKEKKIRILQLRDGPF
On to B3, for which, in test [2], the binding result is reported as “binds”.

B4: ScCdc20^195–211 synthetic peptide (peptide)
peptide: GLDMNKRILQYMPEPPK
As for B4, the binding result (in test [3]; with AlexaFluor488-ScMad2^wt) was “binds” in each case.

B5: GST-ScCdc20^184–210 (domain or fragment)
chain: IVFKQNVAEACGLDMNKRILQYMPEPP
In the case of B5, the binding result in test [2] is listed as “binds”.

B6: ScMad2^ΔC (recombinant, six residues deleted from the C terminus) (domain or fragment)
chain: MSQSISLKGSTRTVTEFFEYSINSILYQRGVYPAEDFVTVKKYDLTLLKTHDDELKDYIRKILLQVHRWLLGGKCNQLVLCIVDKDEGEVVERWSFNVQHISGNSNGQDDVVDLNTTQSQIRALIRQITSSVTFLPELTKEGGYTFTVLAYTDADAKVPLEWADSNSKEIPDGEVVQFKTFSTNDHKVGA
Regarding B6, the binding result in test [4] was “binds”.
